# In PMC5507636 (Science Advances, 2017):
# Biological target: Streptococcus pyogenes Cas9 (Streptococcus pyogenes, UniProt Q99ZW2)
# Test: cryo-EM structure
# Chain of Streptococcus pyogenes Cas9 (Q99ZW2 whole entry): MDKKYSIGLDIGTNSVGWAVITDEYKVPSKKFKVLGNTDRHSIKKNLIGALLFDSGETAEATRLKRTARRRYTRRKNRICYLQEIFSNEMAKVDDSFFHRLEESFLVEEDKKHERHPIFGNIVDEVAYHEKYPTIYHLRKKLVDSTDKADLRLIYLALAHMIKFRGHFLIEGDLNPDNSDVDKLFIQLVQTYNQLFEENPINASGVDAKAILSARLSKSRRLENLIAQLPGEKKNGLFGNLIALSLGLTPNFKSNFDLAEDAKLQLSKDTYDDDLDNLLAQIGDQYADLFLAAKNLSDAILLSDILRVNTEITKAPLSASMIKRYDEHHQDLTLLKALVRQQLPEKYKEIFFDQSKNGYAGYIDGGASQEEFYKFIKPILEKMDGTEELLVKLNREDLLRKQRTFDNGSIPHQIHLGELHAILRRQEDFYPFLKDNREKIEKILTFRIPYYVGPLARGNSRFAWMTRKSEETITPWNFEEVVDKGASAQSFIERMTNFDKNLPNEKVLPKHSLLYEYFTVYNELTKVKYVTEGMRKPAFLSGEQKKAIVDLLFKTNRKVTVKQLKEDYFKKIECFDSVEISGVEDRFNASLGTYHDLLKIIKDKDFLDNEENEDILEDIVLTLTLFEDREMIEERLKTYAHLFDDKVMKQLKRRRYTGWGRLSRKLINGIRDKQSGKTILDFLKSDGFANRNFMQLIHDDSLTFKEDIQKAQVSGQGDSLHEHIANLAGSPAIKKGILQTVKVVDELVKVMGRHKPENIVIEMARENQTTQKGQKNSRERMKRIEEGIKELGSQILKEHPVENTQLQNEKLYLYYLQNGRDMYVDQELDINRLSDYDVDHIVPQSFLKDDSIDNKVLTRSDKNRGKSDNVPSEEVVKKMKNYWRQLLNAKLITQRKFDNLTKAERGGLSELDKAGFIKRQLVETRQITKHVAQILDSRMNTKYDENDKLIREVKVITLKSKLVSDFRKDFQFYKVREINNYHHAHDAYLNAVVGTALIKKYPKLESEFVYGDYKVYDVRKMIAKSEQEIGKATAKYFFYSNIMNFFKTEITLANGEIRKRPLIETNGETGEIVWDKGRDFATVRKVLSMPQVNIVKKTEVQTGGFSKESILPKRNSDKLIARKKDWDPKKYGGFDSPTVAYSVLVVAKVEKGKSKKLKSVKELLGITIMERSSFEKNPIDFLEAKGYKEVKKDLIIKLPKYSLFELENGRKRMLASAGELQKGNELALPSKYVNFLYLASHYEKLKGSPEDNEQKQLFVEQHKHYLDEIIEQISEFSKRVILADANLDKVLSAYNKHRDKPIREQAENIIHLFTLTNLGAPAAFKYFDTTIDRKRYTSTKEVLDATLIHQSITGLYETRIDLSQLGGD
binder,measurement,value
anti-CRISPR protein AcrIIA4 (natural protein) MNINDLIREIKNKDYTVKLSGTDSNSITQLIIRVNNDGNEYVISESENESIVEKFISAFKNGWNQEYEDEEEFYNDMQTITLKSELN,stoichiometry N,1
